PMC5016095 (2016)

Experiments:
α-synuclein S129E = α-synuclein S129E (Homo sapiens, UniProt P37840); experiment: fluorescence spectroscopy
α-synuclein (oligomeric) = α-synuclein (oligomeric) (Homo sapiens, UniProt P37840, oligomeric, pseudo-wildtype tryptophan mutant); experiment: fluorescence spectroscopy

B1: TOM20 C-terminal cytosolic fragment (protein)
chain: DRKRRSDPNFKNRLRERRKKQKLAKERAGLSKLPDLKDAEAVQKFFLEEIQLGEELLAQGDYEKGVDHLTNAIAVCGQPQQLLQVLQQTLPPPVFQMLLTKLPTISQRIVSAQSLAEDDVE
B1 was tested, and the Kd (α-synuclein S129E) was ~5 µM and the Kd (α-synuclein (oligomeric)) was ~5 µM.
